Measured values published in US20230151089A1 (SYNGLE THERAPEUTICS B V, published 2023).

Legend:
[1] = molecular target: T1, alpha-synuclein oligomers (UniProt P37840 1-140); assay: ELISA, alpha-Syn oligomer coated plate
[2] = molecular target: T1, alpha-synuclein oligomers; assay: ELISA, read from the graph, reference alpha-Syn monomer
[3] = molecular target: T1, alpha-synuclein oligomers; assay: ELISA on alpha-Syn oligomer coat; half of the highest OD 450 nm, drawn table
[4] = molecular target: T1, alpha-synuclein oligomers; assay: ELISA on alpha-Syn oligomer coat; row 'Titre (nM)' of the drawn table, concentration at DO (50%)
[5] = molecular target: T1, alpha-synuclein oligomers; assay: ELISA, alpha-Syn oligomer coated plate, exp 1
Protocol: (§1) Binding affinities (EC50 values) towards different antigens were determined from ELISA experiments using antigen coated plates as follows. Absorbance data was corrected for background absorption obtained by incubating antigen coated plates without adding primary antibody but keeping all other parameters constant. The background corrected absorbance values were then plotted against the log value of the antibody concentration.
(§2) The curve was fitted using the Graphpad Prism software using the common binding function Abs450=Max/(1+10\hat{ }(([Log EC50−Log Ab]))) where “Abs450” is the background corrected experimental absorption, “Max” is the absorption upon complete binding saturation, “Log EC50” is the log of the EC50 value and “Log Ab” is the log of the antibody concentration.

[6] = molecular target: T1, alpha-synuclein oligomers; assay: ELISA, alpha-Syn oligomer coated plate, exp 2
Protocol: as §1, §2

[7] = molecular target: T1, alpha-synuclein oligomers; assay: ELISA, alpha-Syn oligomer coated plate, exp 3
Protocol: as §1, §2

[8] = molecular target: T1, alpha-synuclein oligomers; assay: ELISA, ratio of EC50 values, reference alpha-Syn fibrils
Protocol: as §1, §2

[9] = molecular target: T1, alpha-synuclein oligomers; assay: ELISA, ratio of binding affinities, reference alpha-Syn fibrils (FIG. 3)
Protocol: as §1, §2

[10] = molecular target: T1, alpha-synuclein oligomers; assay: ELISA on antigen-coated plate, antibody titrated in tenfold steps, OD 450-630 nm
Protocol: as §1, §2

[11] = molecular target: T1, alpha-synuclein oligomers; assay: ELISA on plates coated with ASO, ABO, AB fibrils, TAU oligo, TAU fibrils or no coat; antibody titrated, OD 450 nm

Row | EC50 [1] [nM] | specificity ratio of alpha-Syn oligomer compared to alpha-Syn monomer [2] | DO (50%) [3] | EC50 [4] [nM] | EC50 [5] [nM] | EC50 [6] [nM] | EC50 [7] [nM] | fold preference over alpha-Syn fibrils [8] [fold] | binding affinity ratio alpha-Syn oligomers:alpha-Syn fibrils [9] [fold] | EC50 (read off the curve) [10] [pM] | EC50 (read off the curve) [11] [µg/mL] | Binder
1 | ~2 | ≥ 100 | 0.904 | 2.03 |  |  |  |  |  |  |  | 26F1 TaFv (tandem single-chain variable fragment) (scFv) scFv: DVQLQESGPGLVKPSQSLSLTCTVTGYSITSDYAWNWIRQFPGNKLEWLGYISYSGNTYYNPSLKSRISITRDTSKNQFFLHLNSVTTEDTATYYCAGNYVRWGQGTLVTVSAGGGGSGGGGSGGGGSDVVMTQTPLTLSVTIGQPASISCKSSQSLLYTNGKTYLNWLLQRPGQSPKRLIYLVSKLDSGVPDRFSGSGSGTDFTLKISRVEAEDLGVYYCLQSSHFPHTFGSGTKLEIKGGGGSDVQLQESGPGLVKPSQSLSLTCTVTGYSITSDYAWNWIRQFPGNKLEWLGYISYSGNTYYNPSLKSRISITRDTSKNQFFLHLNSVTTEDTATYYCAGNYVRWGQGTLVTVSAGGGGSGGGGSGGGGSDVVMTQTPLTLSVTIGQPASISCKSSQSLLYTNGKTYLNWLLQRPGQSPKRLIYLVSKLDSGVPDRFSGSGSGTDFTLKISRVEAEDLGVYYCLQSSHFPHTFGSGTKLEIK
2 |  |  | 1.31 | 0.0966 | 0.039 | 0.027 | 0.09 | 20 | ≥ 20 | ~200 | ~0.01 | antibody 26F1 (antibody, mouse IgG2a, kappa, V domains shown, Mouse monoclonal; Isotype is said to be preferably IgG2a kappa; also called 26F1 antibody; IgG 26F1) VH: DVQLQESGPGLVKPSQSLSLTCTVTGYSITSDYAWNWIRQFPGNKLEWLGYISYSGNTYYNPSLKSRISITRDTSKNQFFLHLNSVTTEDTATYYCAGNYVRWGQGTLVTVSA VL: not shown
3 | ~3.7 | ≥ 100 | 0.744 | 3.66 |  |  |  |  |  |  |  | 26F1 scFv (single-chain variable fragment) (scFv) scFv: DVQLQESGPGLVKPSQSLSLTCTVTGYSITSDYAWNWIRQFPGNKLEWLGYISYSGNTYYNPSLKSRISITRDTSKNQFFLHLNSVTTEDTATYYCAGNYVRWGQGTLVTVSAGGGGSGGGGSGGGGSDVVMTQTPLTLSVTIGQPASISCKSSQSLLYTNGKTYLNWLLQRPGQSPKRLIYLVSKLDSGVPDRFSGSGSGTDFTLKISRVEAEDLGVYYCLQSSHFPHTFGSGTKLEIK
